Article PMC12809092 (2025)

Assays:
[1] = molecular target: PLXNA1-ECD, recombinant human plexinA1 full extracellular domains (human, UniProt Q9UIW2 27-1244); experiment: BLI
[2] = molecular target: T1, PLXNA1-LBD, recombinant human plexinA1 ligand-binding domains (human, UniProt Q9UIW2 27-710); experiment: BLI
T1 chain: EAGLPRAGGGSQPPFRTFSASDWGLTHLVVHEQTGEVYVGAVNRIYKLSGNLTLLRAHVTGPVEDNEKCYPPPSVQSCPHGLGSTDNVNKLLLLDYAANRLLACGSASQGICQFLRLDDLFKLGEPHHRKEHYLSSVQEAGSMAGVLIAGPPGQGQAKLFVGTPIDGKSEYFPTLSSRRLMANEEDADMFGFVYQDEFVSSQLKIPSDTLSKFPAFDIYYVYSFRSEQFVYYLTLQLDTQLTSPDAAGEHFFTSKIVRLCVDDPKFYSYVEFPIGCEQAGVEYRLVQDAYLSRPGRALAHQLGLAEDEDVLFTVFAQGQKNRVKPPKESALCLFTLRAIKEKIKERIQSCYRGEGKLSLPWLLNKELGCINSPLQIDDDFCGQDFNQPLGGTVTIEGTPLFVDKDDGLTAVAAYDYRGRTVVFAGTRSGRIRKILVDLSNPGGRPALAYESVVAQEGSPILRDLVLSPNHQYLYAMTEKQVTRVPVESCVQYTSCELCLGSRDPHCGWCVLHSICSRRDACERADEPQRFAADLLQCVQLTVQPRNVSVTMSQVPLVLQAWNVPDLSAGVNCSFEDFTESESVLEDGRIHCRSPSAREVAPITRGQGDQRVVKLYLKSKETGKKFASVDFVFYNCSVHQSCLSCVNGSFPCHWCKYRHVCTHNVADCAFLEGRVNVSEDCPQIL

koff [1]: 0.000111 s⁻¹
koff [2]: 0.000252 s⁻¹
B1: aPLXNA1-19-43 Fab (Fab, V domains shown)
VH: EVQLQQSGPELVKPGASVKISCKASGYKFTENYMDWVKQSHGESLEWIGDISPDNGDTSYNQKFRDKATLTVDKSSSTAYMELRSLTSEDSAVYYCAQIIYYDYVGYALDYWGQGTSVTVSS
VL: QIVLTQSPAILSASPGEKVTMSCSVSSSITYMHWYQQKPGTSPKRWIYDTSKLASGVPARFSGSGSGTSFSLTISNMEAEDAATYYCHQRSSYPYSFGGGTKLEIK
